Assay [1] concerns the target T1, GDF11 (from serum of treated C57BL6 mice) (mouse, UniProt Q9Z1W4 297-405, limits assumed).
T1 sequence (looked up): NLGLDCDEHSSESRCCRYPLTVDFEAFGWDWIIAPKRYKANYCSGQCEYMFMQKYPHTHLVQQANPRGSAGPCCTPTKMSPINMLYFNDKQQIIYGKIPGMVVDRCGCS
Nature of the assay: pull-down from serum of treated mice with anti human Fc beads, mass spectrometry. As to the method: (§1) To examine the specificity of H4H1657N2 in vivo, C57BL6 mice were injected with drug, and serum from treated mice was subjected to a mass spectrometry based ligand “fishing” experiment. Briefly, drug (H4H1657N2, Control IV or isotype negative control) was injected multiple times (Day 0, D3, D7, D10) over a 14-day period into C57BL6 mice. Animals were sacrificed on D14 and serum was incubated with anti human Fc beads. The beads were washed and bound material was eluted with SDS-PAGE loading buffer. Eluted material was subjected to SDS-PAGE and gel slices corresponding to a molecular weight range of 5-20 kDa were excised. Samples were processed for mass spectrometry using standard reduction, alkylation and trypsinization conditions. Digests were separated on a nano C18 column and automatically spotted onto Bruker Anchor Targets. MALDI-MS (MS/MS) analysis (Bruker Ultraflextreme) was performed in an automated fashion, using LC-WARP (Bruker Daltonics). The mass spectra were searched using MASCOT (Matrix Science) and results were evaluated relative to the isotype control.

The target of assay [2] is T2, Inhibin beta A chain (from serum of treated C57BL6 mice) (mouse, UniProt Q04998 309-424, limits assumed).
T2 sequence (looked up): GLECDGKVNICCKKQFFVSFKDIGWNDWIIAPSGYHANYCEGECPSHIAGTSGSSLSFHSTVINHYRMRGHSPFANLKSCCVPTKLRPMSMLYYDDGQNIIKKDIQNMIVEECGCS
Described as above. As to the method:
as §1

The target of assay [3] is T3, hGDF8 peptide 13 (75-105), C-terminal biotinylated (human, C-terminal biotin).
T3 construct: also called peptide 13 C-term
T3 peptide: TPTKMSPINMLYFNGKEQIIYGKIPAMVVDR
As to the kind of experiment: Luminex peptide beads. An excerpt:
(§2) Fourteen peptides (Table 10) were generated from mature hGDF8 (SEQ ID NO:340). Unmodified peptides, N-terminal biotinylated peptides (N-term), or C-terminal biotinylated peptides (C-term) were used to test and localize antibody binding. Full-length hGDF8, hGDF11 and unmodified peptides were each individually amine-coupled to xMAP® Multi-Analyte COOH Microspheres (or beads). Each of the biotinylated peptides was bound to xMAP® Multi-Analyte LumAvidin Microspheres. Peptide-bound beads suspension were then mixed with an equal volume of blocking buffer (PBS, 1%13SA, 0.05% Tween20, 0.05% Sodium azide) and then distributed into a 96 well filter plate (Millipore, MULTISCREEN® BV). Control and test anti-hGDF8 antibodies, at 2.5 μg/ml were then added to the peptide-bound beads suspension and were allowed to bind to the beads at RT, overnight. The antibody-incubated beads were then washed twice with PBST (PBS+0.05% Tween20) and incubated with either Phycoerythrin (PE) conjugated anti-hFC or PE-conjugated anti-mFC antibodies at RT for 45 min. The beads were washed again and the antibody binding signal to various peptides were detected with either LUMINEX® 100™ or 200™ instruments.

Assay [4] concerns the target T4, hGDF8 peptide 6 (48-72), C-terminal biotinylated (human, C-terminal biotin).
T4 construct: also called peptide 6 C-term
T4 peptide: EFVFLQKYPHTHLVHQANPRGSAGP
As to the kind of experiment: Luminex peptide beads.
Excerpt: as §2

For assay [5], the target named is T5, hGDF8 peptide 2 (1-18), N-terminal biotinylated (human, cysteine pairing not given here).
T5 construct: also called peptide 2 N-term
T5 peptide: Biotin-DFGLDCDEHSTESRCCRY
Nature of the assay: Luminex peptide beads.
Excerpt: as §2

Assay [6] has as its target T6, hGDF8 peptide 14 (91-105), C-terminal biotinylated (human).
T6 construct: also called peptide 14 C-term
T6 peptide: EQIIYGKIPAMVVDR-biotin
As to the kind of experiment: Luminex peptide beads.
Excerpt: as §2

Assay [7] addresses T7, hGDF8 peptide 1 (1-14), N-terminal biotinylated (human).
T7 construct: also called peptide 1 N-term
T7 peptide: Biotin-DFGLDCDEHSTESR
As to the kind of experiment: Luminex peptide beads.
Excerpt: as §2

For assay [8], the target named is T8, hGDF8 peptide 2 (1-18), unmodified (human).
T8 peptide: DFGLDCDEHSTESRCCRY
Nature of the assay: Luminex peptide beads.
Excerpt: as §2

The target in assay [9] is T9, hGDF8 peptide 11 (65-72), unmodified (human).
T9 peptide: NPRGSAGP
As to the kind of experiment: Luminex peptide beads.
Excerpt: as §2

Assay [10] addresses T10, hGDF8 peptide 9 (56-65), C-terminal biotinylated (human).
T10 construct: also called peptide 9 C-term
T10 peptide: PHTHLVHQAN-biotin
As to the kind of experiment: Luminex peptide beads.
Excerpt: as §2

The target in assay [11] is T11, hGDF8 peptide 11 (65-72), N-terminal biotinylated (human).
T11 construct: also called peptide 11 N-term
T11 peptide: Biotin-NPRGSAGP
As to the kind of experiment: Luminex peptide beads.
Excerpt: as §2

In assay [12] the target is T12, hGDF8 peptide 6 (48-72), N-terminal biotinylated (human, N-terminal biotin).
T12 construct: also called peptide 6 N-term
T12 peptide: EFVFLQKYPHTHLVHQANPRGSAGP
As to the kind of experiment: Luminex peptide beads.
Excerpt: as §2

The target in assay [13] is T13, hGDF8 peptide 11 (65-72), C-terminal biotinylated (human).
T13 construct: also called peptide 11 C-term
T13 peptide: NPRGSAGP-biotin
As to the kind of experiment: Luminex peptide beads.
Excerpt: as §2

Assay [14] addresses T14, hGDF8 peptide 12 (73-90), unmodified (human).
T14 peptide: CCTPTKMSPINMLYFNGK
As to the kind of experiment: Luminex peptide beads.
Excerpt: as §2

For assay [15], the target named is T15, hGDF8 peptide 5 (48-69), unmodified (human).
T15 peptide: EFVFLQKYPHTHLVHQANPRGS
As to the kind of experiment: Luminex peptide beads.
Excerpt: as §2

The target of assay [16] is T16, hGDF8 peptide 7 (52-65), C-terminal biotinylated (human).
T16 construct: also called peptide 7 C-term
T16 peptide: LQKYPHTHLVHQAN-biotin
As to the kind of experiment: Luminex peptide beads.
Excerpt: as §2

Assay [17] has as its target T17, hGDF8 peptide 10 (56-72), C-terminal biotinylated (human).
T17 construct: also called peptide 10 C-term
T17 peptide: PHTHLVHQANPRGSAGP-biotin
As to the kind of experiment: Luminex peptide beads.
Excerpt: as §2

The target of assay [18] is T18, hGDF8 peptide 7 (52-65), unmodified (human).
T18 peptide: LQKYPHTHLVHQAN
As to the kind of experiment: Luminex peptide beads.
Excerpt: as §2

Assay [19] concerns the target T19, hGDF8 peptide 3 (17-42), unmodified (human).
T19 peptide: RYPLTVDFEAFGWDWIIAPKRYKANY
Nature of the assay: Luminex peptide beads.
Excerpt: as §2

Assay [20] deals with T20, hGDF8 peptide 10 (56-72), unmodified (human).
T20 peptide: PHTHLVHQANPRGSAGP
As to the kind of experiment: Luminex peptide beads.
Excerpt: as §2

Assay [21] addresses T21, hGDF8 peptide 4 (48-65), C-terminal biotinylated (human).
T21 construct: also called peptide 4 C-term
T21 peptide: EFVFLQKYPHTHLVHQAN-biotin
As to the kind of experiment: Luminex peptide beads.
Excerpt: as §2

In assay [22] the target is T22, hGDF8 peptide 8 (52-72), C-terminal biotinylated (human, C-terminal biotin).
T22 construct: also called peptide 8 C-term
T22 peptide: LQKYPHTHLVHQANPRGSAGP
Nature of the assay: Luminex peptide beads.
Excerpt: as §2

For assay [23], the target named is T23, hGDF8 peptide 13 (75-105), N-terminal biotinylated (human, N-terminal biotin).
T23 construct: also called peptide 13 N-term
T23 peptide: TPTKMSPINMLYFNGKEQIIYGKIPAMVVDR
Nature of the assay: Luminex peptide beads.
Excerpt: as §2

Assay [24] concerns the target T24, hGDF8 peptide 4 (48-65), unmodified (human).
T24 peptide: EFVFLQKYPHTHLVHQAN
As to the kind of experiment: Luminex peptide beads.
Excerpt: as §2

Ends that are not written are not given here. * marks the point of attachment. Biotin = O=C1N[C@H]2[C@H](CS[C@H]2CCCCC(=O)*)N1

B1: H4H1657N2 (antibody, V domains shown)
VH: EVQVLESGGDLVQPGGSLRLSCAASGFTFSAYAMTWVRQAPGKGLEWVSAISGSGGSAYYADSVKGRFTISRDNSKNTVYLQMNSLRAEDTAVYYCAKDGAWKMSGLDVWGQGTTVIVSS
VL: DIQMTQSPASLSASVGDRVTITCRASQDISDYLAWYQQKPGKIPRLLIYTTSTLQSGVPSRFRGSGSGTDFTLTISSLQPEDVATYYCQKYDSAPLTFGGGTKVEIK
notes: captured by anti-hFc, so human Fc
Take B1: the binding result in [1] is “no binding”; in assay [2] it was “no binding”; in assay [3], “no binding (tested: 2.5 µg/ml)”; in [4] it was “no binding (tested: 2.5 µg/ml)”; in assay [5], “no binding (tested: 2.5 µg/ml)”; in assay [6], “no binding (tested: 2.5 µg/ml)”. In addition, the binding result in assay [7], in [8], in [9], in [10], in assay [11] and in assay [12] was “no binding (tested: 2.5 µg/ml)” in each case. Also, the binding result in assay [13], in assay [14], in [15], in assay [16], in assay [17] and in [18] was “no binding (tested: 2.5 µg/ml)” each time. Besides, the binding result in assay [19], in assay [20], in [21], in assay [22], in assay [23] and in assay [24] was “no binding (tested: 2.5 µg/ml)” each time.
